Laboratory results taken from US20170174783A1 (Zymeworks, published 2017).

How the values were obtained:
[1] = biological target: T1, HER2 on the surface of human tumour cell lines (human, UniProt P04626 23-1255); assay: flow cytometry on SKOV3 cells
T1 construct: whole, on cells; also called ErbB2; Her2 receptor
Protocol: (§1) Binding of the test antibodies to the surface of SKOV3 cells was determined by flow cytometry. Cells were washed with PBS and resuspended in DMEM at 1×10⁵ cells/100 μl. 100 μl cell suspension was added into each microcentrifuge tube, followed by 10 μl/tube of the antibody variants. The tubes were incubated for 2 hr 4° C. on a rotator. The microcentrifuge tubes were centrifuged for 2 min 2000 RPM at room temperature and the cell pellets washed with 500 μl media. Each cell pellet was resuspended 100 μl of fluorochrome-labelled secondary antibody diluted in media to 2 μg/sample. The samples were then incubated for 1 hr at 4° C. on a rotator. After incubation, the cells were centrifuged for 2 min at 2000 RPM and washed in media. The cells were resuspended in 500 μl media, filtered in tube containing 5 μl propidium iodide (PI) and analyzed on a BD LSRII flow cytometer according to the manufacturer's instructions.

[2] = biological target: T1, HER2 on the surface of human tumour …; assay: flow cytometry on SKOV3 cells; remark: listed apart in the source
Protocol: as §1

[3] = biological target: T1, HER2 on the surface of human tumour …; assay: flow cytometry on MALME-3M cells

B1: OA4-scFv-BID2 (antibody)
chain 1: QVQLVQSGAEVKKPGESLKISCKGSGYSFTSYWIAWVRQMPGKGLEYMGLIYPGDSDTKYSPSFQGQVTISVDKSVSTAYLQWSSLKPSDSAVYFCARHDVGYCTDRTCAKWPEWLGVWGQGTLVTVSSGGGGSSGGGSGGGGSQSVLTQPPSVSAAPGQKVTISCSGSSSNIGNNYVSWYQQLPGTAPKLLIYDHTNRPAGVPDRFSGSKSGTSASLAISGFRSEDEADYYCASWDYTLSGWVFGGGTKLTVLGAAEPKSSDKTHTCPPCPAPELLGGPSVFLFPPKPKDTLMISRTPEVTCVVVDVSHEDPEVKFNWYVDGVEVHNAKTKPREEQYNSTYRVVSVLTVLHQDWLNGKEYKCKVSNKALPAPIEKTISKAKGQPREPQVYTYPPSRDELTKNQVSLTCLVKGFYPSDIAVEWESNGQPENNYKTTPPVLDSDGSFALVSKLTVDKSRWQQGNVFSCSVMHEALHNHYTQKSLSLSPGK
chain 2: not shown
notes: also called 878
B1 was tested, and the Kd [1] was 12.4 nM, the “fold difference in Bmax, OA4-scFv-BID2 against FSA-scFv-BID2” value [2] was 1.96 fold and the “fold difference in KD, OA4-scFv-BID2 against FSA-scFv-BID2” value [2] was 2.03 fold. For the same binder, the “EC50 (read off the curve)” value [3] was roughly 30 nM.
